Test results as given in patent publication US20250277023A1 (published 2025).

Tests used:
[1] = molecular target: T1, PD-L1 (on CHO-PD-L1 cells) (UniProt Q9NZQ7 19-290); experiment: FACS binding; Fig. 22
[2] = molecular target: T1, PD-L1 (on CHO-PD-L1 cells); experiment: FACS binding; Fig. 25

T1 sequence (Q9NZQ7 19-290): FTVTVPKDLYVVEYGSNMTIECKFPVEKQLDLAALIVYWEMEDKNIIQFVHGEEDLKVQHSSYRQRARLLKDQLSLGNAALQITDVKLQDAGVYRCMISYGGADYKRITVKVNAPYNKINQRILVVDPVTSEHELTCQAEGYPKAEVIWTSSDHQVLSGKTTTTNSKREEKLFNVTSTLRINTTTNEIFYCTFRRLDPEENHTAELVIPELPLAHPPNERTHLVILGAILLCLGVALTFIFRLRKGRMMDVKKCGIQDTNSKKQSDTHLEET

Row | Binder | EC50 [1] [nM] | EC50 [2] [nM]
1 | R1110: TIGIT_VH_IL15RA (sushi65 T2A)/TIGIT_VL_IL15/PD-L1-Fab (bispecific antibody) chain 1: QVQLVQSGAEVKKPGSSVKVSCKASGYSFTSYWMNWVRQAPGQGLEWIGMIRPSDSETRLNQMFKDRVTITVDKSTSTAYMELSSLRSEDTAVYYCAGIHDYGHGAYWGQGTLVTVSSGGGGSGGGGSGGGGSGGGGSGIACPPPMSVEHADIWVKSYSLYSRERYICNSGFKRKAGTSSLTECVLNKATNVAHWTTPSLKCIREPKSSDKTHTCPPCPAPELLGGPSVFLFPPKPKDTLMISRTPEVTCVVVDVSHEDPEVKFNWYVDGVEVHNAKTKPREEQYNSTYRVVSVLTVLHQDWLNGKEYKCKVSNKALPAPIEKTISKAKGQPREPQVYTLPPSREEMTKNQVSLTCRVKGFYPSDIAVEWESNGQPENNYKTTPPVLKSDGSFFLASKLTVDKSRWQQGNVFSCSVMHEALHNHYTQKSLSLSPGK chain 2: DIQMTQSPSSLSASVGDRVTITCRASENIYSNLAWYQQKPGKSPKLLVYAASHLPDGVPSRFSGSGSGTDYSLTISSLQPEDFATYYCQHFWGTPRTFGQGTKLEIKGGGGSGGGGSGGGGSGGGGSGNWVNVISDLKKIEDLIQSMHIDATLYTESDVHPSCKVTAMKCFLLELQVISLESGDASIHNTVQDLIILANNSLSSNGNVTESGCKECEELEEKNIKEFLQSFVHIVQMFINTS heavy: QVQLQESGPGLVKPSETLSLTCAVYGDSITSGYWNWIRKPPGKGLEYIGYISYTGSTYQNPSLKSRITMSRDTSKNQYYLKLSSVTAADTAVYYCARSRAWIRTYFDYWGQGTLVTVSSASTKGPSVFPLAPSSKSTSGGTAALGCLVKDYFPEPVTVSWNSGALTSGVHTFPAVLQSSGLYSLSSVVTVPSSSLGTQTYICNVNHKPSNTKVDKRVEPKSCDKTHTCPPCPAPELLGGPSVFLFPPKPKDTLMISRTPEVTCVVVDVSHEDPEVKFNWYVDGVEVHNAKTKPREEQYNSTYRVVSVLTVLHQDWLNGKEYKCKVSNKALPAPIEKTISKAKGQPREPQVYTLPPSREEMTKNQVSLWCLVKGFYPSDIAVEWESNGQPENNYDTTPPVLDSDGSFFLYSDLTVDKSRWQQGNVFSCSVMHEALHNHYTQKSLSLSPGK light: DIQMTQSPSSLSASVGDRVTITCSVSSSISSSNLHWYQQKPGKAPKPWIYGTSNLASGVPSRFSGSGSGTDYTLTISSLQPEDFATYYCQQWSSYPLTFGQGTKLEIKRTVAAPSVFIFPPSDEQLKSGTASVVCLLNNFYPREAKVQWKVDNALQSGNSQESVTEQDSKDSTYSLSSTLTLSKADYEKHKVYACEVTHQGLSSPVTKSFNRGEC |  | 1.53
2 | R1116: TIGIT_VH_IL2/TIGIT_VL_IL2RA/PD-L1-Fab (bispecific antibody) chain 1: not shown chain 2: DIQMTQSPSSLSASVGDRVTITCRASENIYSNLAWYQQKPGKSPKLLVYAASHLPDGVPSRFSGSGSGTDYSLTISSLQPEDFATYYCQHFWGTPRTFGQGTKLEIKGGGGSGGGGSGGGGSGGGGSGELCDDDPPEIPHATFKAMAYKEGTMLNCECKRGFRRIKSGSLYMLCTGNSSHSSWDNQCQCTSSATRNTTKQVTPQPEEQKERKTTEMQSPMQPVDQASLPGHCREPPPWENEATERIYHFVVGQMVYYQCVQGYRALHRGPAESVCKMTHGKTRWTQPQLICTG heavy: EVQLQESGPGLVKPSETLSLTCAVYGDSITSGYWNWIRKPPGKGLEYMGYISYTGSTYQNPSLKSRITFSRDTSKNQYYLKLSSVTAADTATYYCARSRAWIRTYFDYWGQGTLVTVSSASTKGPSVFPLAPSSKSTSGGTAALGCLVKDYFPEPVTVSWNSGALTSGVHTFPAVLQSSGLYSLSSVVTVPSSSLGTQTYICNVNHKPSNTKVDKRVEPKSCDKTHTCPPCPAPELLGGPSVFLFPPKPKDTLMISRTPEVTCVVVDVSHEDPEVKFNWYVDGVEVHNAKTKPREEQYNSTYRVVSVLTVLHQDWLNGKEYKCKVSNKALPAPIEKTISKAKGQPREPQVYTLPPSREEMTKNQVSLWCLVKGFYPSDIAVEWESNGQPENNYDTTPPVLDSDGSFFLYSDLTVDKSRWQQGNVFSCSVMHEALHNHYTQKSLSLSPGK light: EIVLTQSPDFQSVTPKEKVTITCSVSSSISSSNLHWYQQKPDQSPKLLIYGTSNLASGVPSRFSGSGSGTDFTLTINSLEAEDAATYYCQQWSSYPLTFGQGTKLEIKRTVAAPSVFIFPPSDEQLKSGTASVVCLLNNFYPREAKVQWKVDNALQSGNSQESVTEQDSKDSTYSLSSTLTLSKADYEKHKVYACEVTHQGLSSPVTKSFNRGEC | 4.15 | 

Further binders by falling EC50 [1], results first:

Row | EC50 [1] [nM] | EC50 [2] [nM] | Binder
3 | 3.38 |  | R0919 (PD-L1 monoclonal antibody) (antibody, V domains shown) VH: EVQLQESGPGLVKPSETLSLTCAVYGDSITSGYWNWIRKPPGKGLEYMGYISYTGSTYQNPSLKSRITFSRDTSKNQYYLKLSSVTAADTATYYCARSRAWIRTYFDYWGQGTLVTVSS VL: EIVLTQSPDFQSVTPKEKVTITCSVSSSISSSNLHWYQQKPDQSPKLLIYGTSNLASGVPSRFSGSGSGTDFTLTINSLEAEDAATYYCQQWSSYPLTFGQGTKLEIK
4 | 2.99 |  | R1120: TIGIT_VH_IL18R1_D1D2D3/TIGIT_VL_IL18/PD-L1-Fab (bispecific antibody) chain 1: QVQLVQSGAEVKKPGSSVKVSCKASGYSFTSYWMNWVRQAPGQGLEWIGMIRPSDSETRLNQMFKDRVTITVDKSTSTAYMELSSLRSEDTAVYYCAGIHDYGHGAYWGQGTLVTVSSGGGGSGGGGSGGGGSGGGGSGCTSRPHITVVEGEPFYLKHCSCSLAHEIETTTKSWYKSSGSQEHVELNPRSSSRIALHDCVLEFWPVELNDTGSYFFQMKNYTQKWKLNVIRRNKHSCFTERQVTSKIVEVKKFFQITCENSYYQTLVNSTSLYKNCKKLLLENNKNPTIKKNAEFEDQGYYSCVHFLHHNGKLFNITKTFNITIVEDRSNIVPVLLGPKLNHVAVELGKNVRLNCSALLNEEDVIYWMFGEENGSDPNIHEEKEMRIMTPEGKWHASKVLRIENIGESNLNVLYNCTVASTGGTDTKSFIEPKSSDKTHTCPPCPAPELLGGPSVFLFPPKPKDTLMISRTPEVTCVVVDVSHEDPEVKFNWYVDGVEVHNAKTKPREEQYNSTYRVVSVLTVLHQDWLNGKEYKCKVSNKALPAPIEKTISKAKGQPREPQVYTLPPSREEMTKNQVSLTCRVKGFYPSDIAVEWESNGQPENNYKTTPPVLKSDGSFFLASKLTVDKSRWQQGNVFSCSVMHEALHNHYTQKSLSLSPGK chain 2: not shown heavy: EVQLQESGPGLVKPSETLSLTCAVYGDSITSGYWNWIRKPPGKGLEYMGYISYTGSTYQNPSLKSRITFSRDTSKNQYYLKLSSVTAADTATYYCARSRAWIRTYFDYWGQGTLVTVSSASTKGPSVFPLAPSSKSTSGGTAALGCLVKDYFPEPVTVSWNSGALTSGVHTFPAVLQSSGLYSLSSVVTVPSSSLGTQTYICNVNHKPSNTKVDKRVEPKSCDKTHTCPPCPAPELLGGPSVFLFPPKPKDTLMISRTPEVTCVVVDVSHEDPEVKFNWYVDGVEVHNAKTKPREEQYNSTYRVVSVLTVLHQDWLNGKEYKCKVSNKALPAPIEKTISKAKGQPREPQVYTLPPSREEMTKNQVSLWCLVKGFYPSDIAVEWESNGQPENNYDTTPPVLDSDGSFFLYSDLTVDKSRWQQGNVFSCSVMHEALHNHYTQKSLSLSPGK light: EIVLTQSPDFQSVTPKEKVTITCSVSSSISSSNLHWYQQKPDQSPKLLIYGTSNLASGVPSRFSGSGSGTDFTLTINSLEAEDAATYYCQQWSSYPLTFGQGTKLEIKRTVAAPSVFIFPPSDEQLKSGTASVVCLLNNFYPREAKVQWKVDNALQSGNSQESVTEQDSKDSTYSLSSTLTLSKADYEKHKVYACEVTHQGLSSPVTKSFNRGEC
